From patent publication US20230221313A1

Biological target: HIV-1 BG505.W6M.Env.C2 pseudovirus (Env) (HIV-1)
Assay: cell-based or functional assay

Substance | Fold change GFP-/GFP+ (droplet neutralization, NGS reads), Round 1
VRC34 (antibody) | 1.78
anti-HIV antibody VRC01 | 1.08
